Experimental data as given in article PMC5033319.

Test: recombinant expression in Sf9, not detailed
Conditions: glycan lost; control: initial domain III preparation, sites intact

## EGFR domain III (EGFRD3): N328D and N420D
  other: solubility: increases
